Target: FhuA 13R1 (Escherichia coli) (UniProt P06971)
Assay: continuous wave EPR of spin-labelled protein

Chain of UniProt P06971 (P06971 34-747): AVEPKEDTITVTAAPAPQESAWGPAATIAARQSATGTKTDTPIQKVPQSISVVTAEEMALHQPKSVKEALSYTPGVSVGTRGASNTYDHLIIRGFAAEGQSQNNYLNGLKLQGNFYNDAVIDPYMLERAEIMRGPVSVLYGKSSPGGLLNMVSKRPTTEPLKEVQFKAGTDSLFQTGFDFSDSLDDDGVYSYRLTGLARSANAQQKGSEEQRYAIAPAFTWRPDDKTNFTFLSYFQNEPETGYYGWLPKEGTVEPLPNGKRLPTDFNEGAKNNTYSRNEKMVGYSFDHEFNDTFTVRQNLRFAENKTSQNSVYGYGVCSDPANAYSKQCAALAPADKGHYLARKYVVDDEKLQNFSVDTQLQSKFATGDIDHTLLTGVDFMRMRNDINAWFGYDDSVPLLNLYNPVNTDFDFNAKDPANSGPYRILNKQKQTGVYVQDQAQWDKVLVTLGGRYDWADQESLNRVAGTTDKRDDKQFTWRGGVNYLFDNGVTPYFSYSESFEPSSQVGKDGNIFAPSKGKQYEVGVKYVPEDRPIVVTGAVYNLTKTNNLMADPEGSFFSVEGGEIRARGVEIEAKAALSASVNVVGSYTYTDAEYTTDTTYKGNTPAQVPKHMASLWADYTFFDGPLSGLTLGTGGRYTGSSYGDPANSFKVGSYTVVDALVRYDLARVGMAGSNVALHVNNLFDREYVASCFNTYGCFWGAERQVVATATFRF

Substance: TonB (103-239) (from UniProt P02929 103-239) (domain or fragment)
- fraction of FhuA bound to TonB: 95%

— paper PMC5811355
